Measurements: patent US20090036647A1, “BITORAN WHICH IS TRYPSIN-INHIBITOR-LIKE PROTEIN DERIVED FROM BITIS ARIETANS VENOM, AND USE THEREOF AS BLOOD COAGULATION FACTOR Xa INHIBITOR” (NEC SOFT, LTD., priority 2005, published 2009)

B1: SBTI: Trypsin inhibitor substance from plant; Kunitz-type trypsin inhibitor from soybean, MW=20.1 kDa, positive control (protein, UniProt P01070 25-205, looked up)
Trypsin inhibitor A: DFVLDNEGNPLENGGTYYILSDITAFGGIRAAPTGNERCPLTVVQSRNELDKGIGTIISSPYRIRFIAEGHPLSLKFDSFAVIMLCVGIPTEWSVVEDLPEGPAVKIGENKDAMDGWFRLERVSDDEFNNYKLVFCPQQAEDDKCGDIGISIDHDDGTRRLVVSKNKPLVVQFQKLDKESL
B2: bitoran V (protein)
chain: CRQNRPDFCYLPAVEGPCRAYIRSFFYNSTSNECEKFFYGGCYGNANKFETRDECRKTCVASA

How the values were obtained:
[1] = target: T1, human blood coagulation factor Xa (Homo sapiens, UniProt P00742); test: cell-based or functional assay
Target sequence in this assay (P00742 41-488 limits assumed): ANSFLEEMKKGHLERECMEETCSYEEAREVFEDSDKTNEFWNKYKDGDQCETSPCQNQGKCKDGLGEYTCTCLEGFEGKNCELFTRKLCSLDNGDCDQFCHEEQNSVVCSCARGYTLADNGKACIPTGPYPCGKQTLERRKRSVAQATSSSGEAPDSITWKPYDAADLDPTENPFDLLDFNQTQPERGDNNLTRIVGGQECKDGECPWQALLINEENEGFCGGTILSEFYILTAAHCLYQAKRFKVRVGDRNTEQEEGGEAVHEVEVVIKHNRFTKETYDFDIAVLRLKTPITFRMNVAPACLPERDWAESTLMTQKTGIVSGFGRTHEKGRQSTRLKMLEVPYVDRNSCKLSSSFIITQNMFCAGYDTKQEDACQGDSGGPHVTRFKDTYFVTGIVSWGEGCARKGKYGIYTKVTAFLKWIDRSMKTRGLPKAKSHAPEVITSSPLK

[2] = target: T1, human blood coagulation factor Xa; test: Inhibition of the serine protease activity of human blood coagulation factor Xa (chromogenic substrate LGR-pNA); assay type: biochemical; conditions: 0.3 μM human factor Xa, 15 min at 37° C. preincubation, synthetic substrate LGR-pNA, Tris-HCl buffered saline pH8.0; from V/V0 curves of FIG. 4; read-out: 50% inhibition concentration (IC50) against serine protease activity of factor Xa
Procedure: Crude venom of Bitis arietans arietans purchased from LATOXAN was dissolved in Tris-HCl buffer (50 mM Tris-HCl pH 8.0) to prepare 2 mL of a crude venom solution (in concentration of 250 mg/mL). The crude venom solution was applied to Superdex 200 pg gel permeation column (φ2.6 cm×L 60 cm) equilibrated with the Tris-HCl buffer (50 mM Tris-HCl pH 8.0) at a flow rate of 2 mL/min. Two mL aliquots of the series of eluted fractions were collected, and each eluted fraction was determined for the presence of inhibitory activity against the serine protease activity of blood coagulation factor Xa. In the assay for inhibitory activity specific to the serine protease activity of blood coagulation factor Xa, a synthetic substrate Boc-leucyl-glycil-L-arginyl-p-nitroanilide hydrochloride was used to determine a concentration of a reaction product formed by truncation at the C-terminal side of an arginine residue by protease activity of blood coagulation factor Xa (Cproduct: concentration of p-nitroaniline), and then from a product concentration without addition of a test substance: Cproduct0 and a product concentration with addition of a test substance: Cproduct, an inhibitory rate was calculated as (Cproduct0−Cproduct)/Cproduct0. […]
Target sequence in this assay (P00742 235-488 limits assumed): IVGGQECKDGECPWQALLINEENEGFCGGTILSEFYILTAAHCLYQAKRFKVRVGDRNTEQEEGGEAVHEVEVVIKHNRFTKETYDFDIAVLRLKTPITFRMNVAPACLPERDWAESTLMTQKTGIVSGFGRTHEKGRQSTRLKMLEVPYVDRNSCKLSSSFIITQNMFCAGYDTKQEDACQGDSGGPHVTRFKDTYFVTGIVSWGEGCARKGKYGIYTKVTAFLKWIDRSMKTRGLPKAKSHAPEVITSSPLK
Target sequence in this assay (P00742 41-179 partner limits assumed): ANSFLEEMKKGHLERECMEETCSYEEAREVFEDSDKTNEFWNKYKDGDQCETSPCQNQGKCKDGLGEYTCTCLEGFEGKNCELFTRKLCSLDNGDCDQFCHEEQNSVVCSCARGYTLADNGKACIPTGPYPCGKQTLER

Molecule | 50% inhibition concentration (IC50) of factor Xa protease activity (V/V0), cleavage of synthetic substrate LGR-pNA [1] [M] | IC50 [2] [µM]
SBTI (Soybean Trypsin Inhibitor; MW=20.1 kDa) (from UniProt P01070 25-205) | 3e-07 | –
B1 | – | 0.3
B2 | – | 0.02
